From the DeepSol protein solubility set

Assay: soluble on expression in E. coli; label from the status in PepcDB or PDB records
With “MADKRIRSDSSAAAVQAMKNAAVDTIDPPSHAGLEKKAEPFWHDNIRSKALDSWTPADLLAAVELANNQLYITVLRKDLRKEERIRGEERDEGLIKDLRKQIVELQRTILAQRRDLQIHSHATNGESRDQKKRNQNDRDARNTKNEHQDQDDNLIAFPKHG” the “soluble on expression in E. coli” value was “not soluble”.
In the case of “MADLEAVLADVSYLMAMEKSRSQPAARASKRIVLPDPSVRSIMQKFLEKSGDMKFDKIFNQKLGFLLLKDYAENVSESPCPQIKFYEAIKEYEKMETPDERLTKAREIYDHHIMVEMLAHAHNYSKESLQHVQYHLLKQNVPPDLFHRYVLEICDQLRGDIFQRFLESDKFTRFCQWKNLELNMQLTMNDFSVHRIIGRGGFGEVYGCRKADTGKMYAMKCLDKKRIKMKQGETLALNERIMLSLVSTGQDCPFIVCMTYAFQSPDKLCFILDLMNGGDLHYHLSQHGVFTEQEMIFYASEVILGLEHMHNRFVVYRDLKPANILLDENGHVRVSDLGLACDYSKKKPHASVGTHGYMAPEVLAKGVAYDSSADWFSLGCMLYKLLKGHSPFRQHKSKDKNEIDKMTLTQDIELPNEGLSKDCRDLLEGLLKRDVPDRLGCRGKGPTEVKEHPFFKDVDWQTVYLRRMTPPLIPPRGEVNAADAFDIGNFDDDEVKGVKLQDGDSDLYKNFNIVISERWQNEIAETIFEVVNQDADKAESKKRSKQKIKVAVEEKDSDVIVHGYIKKLGGPFTSAWQTKYGKLYPSRLELYPESLTAKPELVFMDQIEDVCAEMQTIKGETAIIVKLRDGFKEPKICLTNSDEISLKEWHTSLRTAHKVSQELLQRMGRKAIKIYGVNHDPMLSESERPGSVTRAFLNRASSVDSGV”, the “soluble on expression in E. coli” value is reported as “not soluble”.
With “MADLFPADFEPVFINIGDLELYNQDLDDEGTPTEAWTTFREEVKQVDGVMFVTPEYNRSVPAVLKNALDVGSRPYGESVWDKKPGLVVSVSPGAISGFGANHHLRQSLVFLNVPTLQQPEAYIGGITNLIGEDGKIIDGTVGFLQSIVDAYVDFFNRLTA” the “soluble on expression in E. coli” value was “not soluble”.
In the case of “MADPDSYRSSITSRPAFNRTVTSSTQNYGTPASGNRVLKIVTETHTSSVASGLSPYGQGAASTIRDDREREKKEITELNDRLASYIGKVRFLAAQNRKLEADLNVLQSRFGKSTGSVKIMYEMEITTATNVVKETGKDHEEAEKEIGKIKDQLDELRKKFEEAQKGRAEDRLKIDELLVTLSNLEAEINLLKRRIALLEEEVARLKKENFRLTSELQRVRSELDQETLLRIDNQNKVTTILEEIDFMKRGFETELKDLQAQAARDTTSENREYFKNELMNSIRDIRAEYDRFMAGNRNDLESWSQIRVQEINTQTNRQNAEINHKRDEVKRLHSQVSELKSKHAELAARNGLLEKQLEDLNYQLEDDQRSYEAALNDKDAQVRKLREECQALLVELQMLLDTKQTLDGELKVYRRMLEGNSEENGLRQLVEKVVRTSAINEEVDTETMRVVKGEHSSRTSYQRSAKGNVSIKEVSPEGKFVILENTHRDKEEPLGDWKLKRKIDGKREIVFTFPSDYILHPVQTVKIFARGNGVANPPEVLVFEGDDTFGAGANVQTILYNNSGEERATHMQRQSQQTTTS”, the “soluble on expression in E. coli” value is reported as “not soluble”.
In the case of “MADSDLPTKGRQRGVRAVELNVAARLENLALLRTLVGAIGTFEDLDFDAVADLRLAVDEVCTRLIRSALPDATLRLVVDPRKDEVVVEASAACDTHDVVAPGSFSWHVLTALADDVQTFHDGRQPDVAGSVFGITLTARRAASSR”, the “soluble on expression in E. coli” value is reported as “not soluble”.
In the case of “MADSPNRLNRAKIDSTTMKDPRVLNNLKLRELLLPKFTSLWEIQTEVTVDNRTILLTWMHLLCESFELDKSVFPLSVSILDRYLCKKQGTKKTLQKIGAACVLIGSKIRTVKPMTVSKLTYLSCDCFTNLELINQEKDILEALKWDTEAVLATDFLIPLCNALKIPEDLWPQLYEAASTTICKALIQPNIALLSPGLICAGGLLTTIETDNTNCRPWTCYLEDLSSILNFSTNTVRTVKDQVSEAFSLYDLEIL”, the “soluble on expression in E. coli” value is reported as “soluble”.
With “MAEAVITLTEAAAFQIKDMMKEQEEEGAYLRVGVHGGGCSGLSYGMGFDHERRDDDIEFEQHGIKILVDRDSAPILRGTVIDYKQSLLGGGFTINNPNAIATCGCGSSFRTATNAGTPEQC” the “soluble on expression in E. coli” value was “soluble”.
For “MAEDKTKPSELDQGKYDADDNVKIICLGDSAVGKSKLMERFLMDGFQPQQLSTYALTLYKHTATVDGRTILVDFWDTAGQERFQSMHASYYHKAHACIMVFDVQRKVTYRNLSTWYTELREFRPEIPCIVVANKIDADINVTQKSFNFAKKFSLPLYFVSAADGTNVVKLFNDAIRLAVSYKQNSQDFMDEIFQELENFSLEQEEEDVPDQEQSSSIETPSEEAASPHS”, the “soluble on expression in E. coli” value was “soluble”.
For “MAEETIFSKIIRREIPSDIVYQDDLVTAFRDISPQAPTHILIIPNILIPTVNDVSAEHEQALGRMITVAAKIAEQEGIAEDGYRLIMNTNRHGGQEVYHIHMHLLGGRPLGPMLAHKGL”, the “soluble on expression in E. coli” value was “soluble”.
In the case of “MAEIGIFVGTMYGNSLLVAEEAEAILTAQGHKATVFEDPELSDWLPYQDKYVLVVTSTTGQGDLPDSIVPLFQGIKDSLGFQPNLRYGVIALGDSSYVNFCNGGKQFDALLQEQSAQRVGEMLLIDASENPEPETESNPWVEQWGTLLS”, the “soluble on expression in E. coli” value is reported as “soluble”.
In the case of “MAEKTVYRVDGLSCTNCAAKFERNVKEIEGVTEAIVNFGASKITVTGEASIQQVEQAGAFEHLKIIPEKEA”, the “soluble on expression in E. coli” value is reported as “soluble”.
In the case of “MAELKALQNGSDIRGIALDTEEQTATLTATAVAEIAVGVVRWLQDKKQLPRKAQQRLTIAIGHDSRLTAEPIKQALVDTFLSLGIQVIDVGLATTPAMFMATQFPTLQCDAAIMITASHLPYYFNGLKFFTAEGGAEKEDIRYILSHTDPLTANENGTLMKQELLPIYAEHLVEKIRQGIHSPEEKPLQGFRIIVDAGNGAGGFFAEQVLQVLGADTTGSQFLEPDGHFPNHVPNPDNSEAMKSIQTAVLANQADLGIIFDTDVDRSAVVDQSGEVLNRNNLIAVLAAIVLKEAPGSYIVTNSPTSSHLKTFIEEKGGQQIRYISGYRNVINKMIELNHGGFQTPLAIETSGHAAFQENYNLDDGAYVVAKILMLLPELKQNNQTLGDLIATLKQPAETNEFRFKITAEDVTCYGQQVLRDFELFVENQADFAVDRENQEGVRGNVSGQYGSGWFLLRLSLHEPLLVLQVENDQSDKNACVIEKIATFLQKYEEIDSQQIEK”, the “soluble on expression in E. coli” value is reported as “not soluble”.
For “MAENRYELNKNLAQMLKGGVIMDVQNPEQARIAEAAGAAAVMALERIPADIRAVGGVSRMSDPKMIKEIQGAVSIPVMAKVRIGHFVEAQILEAIEIDYIDESEVLSPADNRFHVDKKEFQVPFVCGAKDLGEALRRIAEGASMIRTKGEPGTGDIVQAVRHMRMMSQEIRRIQNLREDELYVAAKDLQVPVELVQYVHKHGKLPVVNFAAGGIATPADAALMMQLGAEGVFVGSGIFKSGDPIKRASAIVKAVTNYRNPQILAQISEDLGEAMVGINENEIQILMAERGKLEHHHHHH”, the “soluble on expression in E. coli” value was “not soluble”.
With “MAESRSPDRGAKEDKPRPRNISREESLQLEGYKHACHALLHAPSQAKLFDRVPIRRVLLMMMRFDGRLGFPGGFVDTRDISLEEGLKRELEEELGPALATVEVTEDDYRSSQVREHPQKCVTHFYIKELKLEEIERIEAEAVNAKDHGLEVMGLIRVPLYTLRDRVGGLPAFLCNNFIGNSKSQLLYALRSLKLLREDQIQEVLKASHRLQY” the “soluble on expression in E. coli” value was “soluble”.
With “MAFDGCCPDCKLPGDDCPLIWGACNHAFHLHCILKWVNSQTSQAHCPMCRREWQFKE” the “soluble on expression in E. coli” value was “soluble”.
In the case of “MAFERQGKIEKKISYSLFLNGPNVHFGSILFGAVDKSKYAEELCTHPMRQAYNTLDSNSRIIITVQSVAILDGKLVW”, the “soluble on expression in E. coli” value is reported as “not soluble”.
With “MAGDPMETLLIQQTEKSNKFWKIVVKEKDYVVFYGKIGTAGSVKAKEFETEEECMNEANKLVASKRKKGYIDPLPGEDYIKEKTITEEEFWELLHRAKTKGEDQEEQIEWLTSHLAKRTVHEIVAFDTHMHSLLKDSYTSRLWAAAYIIMGGCSDDTFDYFRGWLLYQGKETYEACIEDPERLIPVLENLSEYDVPEIEELSLYFGFTVYAEKTGDEDDTYFTLYHVLSNEEFDDVDFEFDWNEDDEEGLKKVFPRLWEMYGEEPIEWLEHHHHHH” the “soluble on expression in E. coli” value was “soluble”.
